Reference: the nanobody polyreactivity screen of Harvey et al. (2022)

Experiment: yeast display, Sf9 membrane polyspecificity reagent, FACS + sequencing; frameworks hold sequencing errors
In short: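 Polyreactivity labels are assigned by the sorting gate from which each nanobody was recovered. The gates were low and high (top ~1%), set on anti-HA fluorescence for expression and streptavidin fluorescence for reagent binding. Before sorting, galactose-induced (36–48 hours) yeast display cells were stained for 1 hour at 4 °C with 10% biotinylated, detergent-solubilized Sf9 membrane reagent.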

Sequence | polyreactivity (PSR sort gate)
QVQLVESGGGLVQAGGSLRISCAASGITFYANTMGWYRQAPGKEREFVAAISGIGGSTYYADSVKGRFAISRDNAKNTVYLQMNSLKPEDPAVYYCNADVYYFLFGTFDYWGQGTQVTVSS | low polyreactivity
QVQLVESGGGLVQAGGSLRLSCAASGSTFEYYAMGWYRQAPGKERELVAAITRRGGSTYYADSVKGRFTISRDNAKNTVYLQMNSLKPEDTAVYYCAAVPTQKSPRTHDFWGQGTQVTVSS | low polyreactivity
QVQLLESGGGLVQAGGSLRLSCAASGRIFVVNAMGWYRQAPGKERELVATITRGASTYADSVKGRFTISRDNAKNTVYLQMNSLKPEDTAVYYCAAAKRPQVVRYDWTKLEYWGQGTQVTVSS | high polyreactivity
QVQLVESGGGLVQAGGSLRLSCAASGRIFDKYAMGWYRQAPGKERELVAAIDWSGGSTYYADSVKGRFTISRDNAKNTVYLQMNSLKPEDTAVYYCAAYWYYEDGQSEARLYGYDYWGQGTQVTVSS | low polyreactivity
QVQLVESGGGLVQAGGSLRLSCASSGGTFSTYAMGWYRQAPGKERELVAAISSTGGSTYYADSVKGRFTISGDNAKNTVYLQMNSLKPEDTAVYYCAAYYSRGWLLYWDEMYFWGQGTQVTVSS | high polyreactivity
QVQLVESGGRLVQAGGSLRLSCAASGRIFKYYAMGWYRPAPGKERELVAAINRDGGRTYYADSVKGRFTISRDTAKISVYLQMNSLKPEDTAVYYCAASYGYVYTTSLDYWGQGTQVTVSS | low polyreactivity
QVQLVESGGGLVQPGGSLRLSCAASGSIASYAMGWYRQAPGKERELVAGISWSGGSTYYADSVKGRFTISRDNAKNTVYLQMNSLKPEDTAVYYCNAYSAFVPPTRGYYWGQGTQVTVSS | high polyreactivity
QGQLVESGGGLVQAGGSLRLSSAASGSTHALYTMGWYRQARGKARQLVAAISKNGGRTYYADSVKGRFTISRDNAKNTVYVQMNSLKPEDTAVYYCAAASGSYRGYDYWGQGTQVTVSS | high polyreactivity
QVQLVESGGGLVQAGGSLRLSCAASGSIIAGYTMGWYRQAPGKERELVAGIRRGGSTNYADSVKGRFTISRDNAKNTVYLQMNSLKPEDTAVYYCNAQRTRSYVLRTFDYWGQGTQVTVSS | high polyreactivity
QVQLVESGGGLVQAGGSLRLSCAASGSTFIYYAMGWYRQAPGKERELVAAITSAGRTNYADSVKGRFTISRDNAKNTVYLQMNSLKPEDTAVYYCAAAYRPRKHHYDYWGQGTQVTVSS | high polyreactivity
QVQLVESGGCIVQAGGSLRLSCAASGRTFRAYAMGWYRQAPGKEREFVAAITKRGGGTYYADSVKGRFTISRDNAKNTVYLQMNILKPEDTAVYYCAAESGSWYSRMDYWGQGTQVTVSS | high polyreactivity
QVQLVESGGGLVQAGGSLRLSCAASGFTFRSYTMGWYRQAPGKERELVAAITSRGTSTYYADSVKGRFTISRDNAKNTVYLQMNSLKPEDTAVYYCADPIYNGYASWQVYYWGQGTQVTVSS | high polyreactivity
QVQLVESGGGLVQAGGSLRLSCAASGSIFGIYVMGWYRPAPGKERELVAGISTRGGSTYYADSVKGRFTISRDNAKNTVYLQMNSLKPEDTAVYYCAAVPASYRYPMYYWGQGTQVTVSS | low polyreactivity
QVQLVESGGGLVQAGGSLRLSCAASGITFYWYAMGWYRQAPGKERELVAAITRSVGSTYYADSVKGRFSISRDNAKNPVYLQMNSLKPEDTAVYYCAADFYYYGFDYWGQGTQVTVSS | low polyreactivity
QVQLVESGGGLVQAGGSLRLSCAASGRTISYYAMVWYRPAPGKERELVAAISSSGGSTYYADSVKGRFTISRDNAKNTFYLQMNSLKPEDTAVYYCAAYQRGNRYDYWGQGTQVTVSS | high polyreactivity
QVQLVESGGGLVQAGGSLRLSCAASGFTFAGYAMGWYRQAPGKERELVAAISYSGGRTYYADSVKGRFTISRDNEKNTVYLQMNSLKPEDTAVYYCNADPAYYRGYYRQGYDYWGQGTQVTVSS | high polyreactivity
QVQLVESGGGLVQAGRSLRLSCAASGRIFYPYAMGWYRQAPGKERELVAAIRWSSGNTRYADSVKGRFTISRDNAKNTVYLQMNSLKPEDTAVYYCAADTTVFFYRYDYWGQGTQVTVSS | high polyreactivity
QVQLVESGGGLVQAGGSLRLSCAASGFIFAWYAMGWSRQAPGKERELVADISWGGGSTYYADSVKGRFTISRDNAKNTVYLQMNSLKPEDTAVYYCAATRPATYAAYDYWGQGTQVTVSS | high polyreactivity
QVQLVESGGGLVQAGGSLRLSCAASGFTFHRNAMGWYRQAPGKERELVAAISTRGGSTAYADSVKGRFTISRDNAKNTVYLQMNSLKPEDTAVYYCAAATSPGIYDYWGQGTQVTVSS | high polyreactivity
QVQLVESGGGLVQAGGSLRLSCAASGSTFRWYAMGWYRQAPGKERDLVAAISARGTSTYYADSVKGRFTISRDNAKNTVYLQMNSLKPEDTAVSYCAAPQQQSWTYDGRYGYWGQGTQVTVSS | high polyreactivity
QVQLVESGGGKVQAGGSLRLSCAASGRIFPEYAMGWYRQAPGKERELVAAISSGDNTTYADSVKGRFTISRDNAKNTVYLQMNSLKPEDTAVYYCNAGSGTTGQGGPIIEYGYWGQGTQVTVSS | low polyreactivity
QVQLVESGGGLVQAGGSLRLSCAASGRIFRRYALGLYRQAPGKEREFVAAISYGGGSTYYADSVKGRFTISRDNAKNTVYLQMNRLKPEDTAVYFCNADVPKSLLLYYPWGYGYWGQGTQVTVSS | low polyreactivity

Sequence | polyreactivity (PSR sort gate)
QVQLVESGGGLVQAGGSLRLSCAASGLTFKSYAMGWNRQAPGKERELVAVISSSGGRTYYADSVKGRFTISRDNAKNTVYLQMNSLKPEDTAVYYCAADGSYGKWGGHAMYYLGQGTQVTVSS | high polyreactivity
QVQLVESGGGLVQAGGSLRLSCAASGLTFIKYAMGWYRQAPGKEREFVADISKRGGTTYYADSVKGRFTISRDTEKNTVYLQMNSLKPEDTAVYYCAARQYLNVYYRYDYWGQGTQVTVSS | high polyreactivity
QDQLVESGGGLVQAGGSLRLSIAASVRIFYANAMGWYRQAPGQERELVAAISSGGSTYYADSVKGRFTISRDNAKNTVYLQMNSLKPEDTAVFYCAVYTHKKVRPEYDYWGQGTQVTVSS | low polyreactivity
QVQLVESGGGLVQAGGSLRLSCAASGSTFFGYAMGWYRQAPGKERELVAAIRYNGGHTYYADSVKGRFTISRDYAKNTVYLQMNRLKPEDTAVYYCAVDVVTSYYELTGSFNYWGQGTQVTVSS | low polyreactivity
QVQLVESGGGLVQAGGSLRLSCAASGFTFYRNAMGWYRQAPGKEREMVAAITWSGTSTYYADSVKGRFTISRDNAKNTVYFQMNSLKPEDTAVYFCNTVGYRGRSNSRFYYWGQGTQVTVSS | high polyreactivity
QVQLVESGGGLVQAGGSLRLICAASGITFTQYAMGWYRQAPGNEREFVAGITISGSSTYYADSVKGRFTISRDNAKNTVYLQMNRLKPEDTAVYYCAAGVRRVYASGHGAYGYWGQGTQVTVSS | low polyreactivity
QVQLVESGGGLVQAGGSLRLSCAASGFTFRYYTMGWYRQAPGKERELVASISRRGGSTYYADSVKGRFTISRDNAKNTVFLQMNSLKPEDTAVYYCNTLSQVFASRAPKFDYWGQGTQVTVSS | high polyreactivity
QVQLVESGGGLVQAGCSLRLSCAASGFIFATNTMGWYRHSPGKERELVAASSTYYAESVKGRFTISRDNAKNTVYLQMNSLKQEDTAVYYCNAYRDSYIGFVDWAGEYWGQGTQVTVSS | low polyreactivity
QVQLVESGGGLVQAGGSLRLSCAASGSIFSKYAMGWYRQAPVKERELVAAIDWSGGSTYYADSVKGRFTISRDNAKNTVYLQMNSLKPEDTAVYYCNAEYVVADYGYYTIEFDYWGQGTQVTVSS | low polyreactivity
QVQLVESGGGLVQAGGSLRLSCAASGRIFVGYAMGWYRQAPGKERELVAAITGSGGGTYYADSVKGRFTISRDNAKNTVYLQMNSLKPEDTAVYYCNARYRSYYVTQRLDYWGQGTQVTVSS | high polyreactivity
QVQLVESGGGLVQAGGSLRLSCAASGRIFGRNAMGWYRQAPGKEREFVAAISRSGASTYYADSVKGRFTISRDNAKNTVYLQMNSLKPEDTAVYYCARTTRQSSAYTYSDEYDYWGQGTQVTVSS | high polyreactivity
QVQLVESGGGLVQAGGSLRLSCAASGSTFYQNAMGWYRQAPGKERELVAAISSRGGSTYYADSVKGRFTISRDNAKNTVYLQMNSLKPEDTAVYYCNTGRGSEMDYWGQGTQVTVSS | high polyreactivity
QVQLVESGGGLVQAGGSLRLSCAASGSIFYFNAMGWYRQAPGKERELVAAINWRGDRTYYADSVKRRFTISRDNAKNTVYLQMNSLKPEDTAVYYCNAVRVHAYSTGEYGYWGQGTQVTVSS | high polyreactivity
QVQLVESGGGLVQAGGSLRISCAASGRTIDSYAMGWYRQAPGKERELVAAISWGGGSTYYADSVKGRFTISRDNAKNTVYLQMNSLKPEDTAVYYCAARWNYTEFDYWGQGTQVTVSS | low polyreactivity
QVQLEESGGGLDQAGGSLRLSCAASGRIFVFYAMGWYRQAPGKERELVAAITASSTRTYFADSVKGRFTISRDNAKNTVYLQMNSLKPEDTAVYYCAADRYYWGQGTQVTVSS | low polyreactivity
QVQLEESGGGLVQAGGSLRLSCAASGGTFDHYTMGWYRQAPGKERELVAAISRRSGRTYYADSVKGRFTISRDKAKNTVYLQMNSLKPEDTAVYYCNADGYTRAFDYWGQGTQVTVSS | high polyreactivity
QVQLVESGGGLVQAGGSLRLSCAASGIIFTVYAMGWYRQAPGKERELVAAITWSGGSTYYADSVKGRFTISRDNAKNTVYLQMNSLKPEDTAVYYCNKVGRVWDVETDGDYDYWGQGTQVTVSS | low polyreactivity
QVQILESGGGLVQAGGSLGLSCAASGSTFPPYAMGWYRQAPGKERELVATITRGGSTYYADSVKGRFTFSRDNAKNTVYVQMNSLKPADTAVYDCNAKVNRSRRSNLYDYWGQGTQVTVSS | high polyreactivity
QVHLQERGGGLLQACGSQRLSCAASGSISEVQYMGWYRRAPGKEREFVAGIAPGATTYYADSVKCRFTISRDNAKNTVFLQMNSLNPEYTDVDYFEDRYVTETDHDYWGQGTQVTVCS | low polyreactivity
QVQLVESGGGLVQAGGSLRLSCAASGSIFEPNAMGWYRQAPGKERELVASITSGGTTYADSVKGRFTISRDNAKNTVYLQMNSLKPEDTAVYYCNARVKAFFDPSQYLYGHDYWGQGTQVTVSS | low polyreactivity
QVQLVESGGGLVQAGGSLRLSCAASGRIFRVNAMGWYRQAPGKDREFVAAITASSGRTSYADSVKGRFTISRDNAQNTVYLQMNSLKPEDTAVYYCNAAVSQFSHRWRRRITFDYWGQGTQVTVSS | low polyreactivity
